US20230212587A1, “Mutant Hydroxyphenylpyruvate Dioxygenase Polypeptide, Encoding Gene Thereof and Use Therefor” (Beijing Dabeinong Biotechnology Co., Ltd., priority 2019, published 2023)
Changes are numbered by the printed parent chain. Names and notes keep the numbering of the source.

B1: CyHPPD-02: native Cyanobacteria HPPD, SEQ ID NO: 141 (protein)
chain: MEFDYLHLYVDDYQSAHRCYQRQWGFTCVNKIITDQGITGIYQQGQILLLISASESSLSRYADYLQKHPPGVGEVAWQVANWQKIQHQLSELQIETTPVIHPLTKAEGLTFLLWGDVHHSIYPVRSELNQNKTLHGVGLTTIDHVVLNIAADQFTQASQWYQQVFGWSVQQSFTVNTPHSGLYSEALASANGKVQFNLNCPTNNSSQIQTFLANNHGAGIQHVAFSTTSITRTVAHLRERGVNFLKIPTGYYQQQRNSSYFNYASLDWDTLQCLEILLDDQDNTGERLLLQIFSQPCYGVGTLFWEIIERRHRAKGFGQGNFQALYEAVETLEKQLEVP
modifications: CyHPPD Amino Acid Sequence (Cyanobacteria)
B2: CyHPPDm-F372A-02: Cyanobacteria HPPD mutant F372A, SEQ ID NO: 144 (protein)
chain: B1 chain with F293A
modifications: CyHPPDm-F372A Amino Acid Sequence
B3: N1HPPD-02: native Sphingobium sp. N1 HPPD, SEQ ID NO: 147 (protein)
chain: MAADSENPLGLHGFAFAEFTSPDPAAMARQFEQLGFVPAARRKDRGLTLYRQGRIAFILNAGEGEQASAFRAAHGPSANGMAFNVADAKAAHRHAIQSGATDADTAQSALPGTYAIEGIGDSLLYLVDSDPFADWDEVPGWREASAERGVGLDLLDHLTHNVRRGQMRVWSEFYATLFGFEEQKFFDIKGQATGLFSQAMIAPDHEIRIPLNESQDDNSQIEEFIREYNGEGIQHLALTTPDIYSTVEKLRANGVRLQDTIDTYYDLVDERVPGHGEDLARLRKNRILIDGDVHDEGLLLQIFTETMFGPIFFEIIQRKGNEGFGNGNFQVLYESIELDQIRRGVVTVDA
modifications: N1HPPD Amino Acid Sequence (Sphingobacterium)
B4: TaHPPD-02: native Triticum aestivum HPPD, SEQ ID NO: 39 (protein, listed as Triticum aestivum)
chain: MPPTPTTPAATGAGAAAAVTPEHARPRRMVRFNPRSDRFHTLSFHHVEFWCADAASAAGRFAFALGAPLAARSDLSTGNSVHASQLLRSGNLAFLFTAPYANGCDAATASLPSFSADAARRFSADHGLAVRSIALRVADAAEAFRASVDGGARPAFSPVDLGRGFGFAEVELYGDVVLRFVSHPDGTDVPFLPGFEGVSNPGAVDYGLTRFDHVVGNVPELASAAAYVAGFTGFHEFAEFTTEDVGTAESGLNSMVLANNSEGVLLPLNEPVHGTKRRSQIQTFLEHHGGPGVQHIAVASSDVLRTLREMRARSAMGGFDFLPPPLPKYYEGVRRIAGDVLSEAQIKECQELGVLVDRDDQGVLLQIFTKPVGDRPTLFLEMIQRIGCMEKDERGEEYQKGGCGGFGKGNFSELFKSIEDYEKSLEAKQSAAVQGS
modifications: TaHPPD Amino Acid Sequence
B5: N1HPPDm-F372A-02: Sphingobium sp. N1 HPPD mutant F372A, SEQ ID NO: 150 (protein)
chain: B3 chain with F303A
modifications: N1HPPDm-F372A Amino Acid Sequence
B6: N2HPPD-02: native Sphingobium sp. N2 HPPD, SEQ ID NO: 153 (protein)
chain: MTLFDNPLGLDGFEFVEFSAPAKGMLEPVFAAMGFVMIARHRSKDVQLWRQGGINLIANYEPRSPAAYFAAEHGPSACGMGWRVRNAAKAYELAVERGAEPVDVKTGPMELRLPAIRGIGGSIIYLIDRYEDEDGGLSIYDIDFVYEPGVDRHPEGAGFKIIDHLTHNVYGGRMAHWASFYERVFGFREIRYFDIKGEYTGLTSKAMTAPDGKIRIPLNEEGKAGGGQIEEFLRAYNGEGIQHIAFLCDDLIAAWDKLKALGTPLMTAPPATYYEMLDERLPGHGEPVAELQKRGILLDGSTQQGDPRLLLQIFGQATIGPVFFEFIQRKKDEGFGEGNFTALFESMERDQLRRGTLNAGESA
modifications: N2HPPD Amino Acid Sequence (Sphingobacterium)
B7: N2HPPDm-F372A-02: Sphingobium sp. N2 HPPD mutant F372A, SEQ ID NO: 156 (protein)
chain: B6 chain with F314A
modifications: N2HPPDm-F372A Amino Acid Sequence

System: Arabidopsis thaliana T1 plants
Assay: Topramezone tolerance of transgenic Arabidopsis thaliana T1 plants (pesticide damage grade by bleached leaf area, score, resistance evaluation)
Type: in vivo
Details: HPPDs from different species; number of plants (of 16) in this grade; topramezone 25 g ai/ha (1x), 7 DAT
Outline: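 Eighteen days after sowing, wild-type and HPPD-transgenic T1 Arabidopsis receive a topramezone spray at 1×, 2× or 4× field rate (25–100 g ai/ha) or water. Seven days later each plant is graded by its proportion of bleached leaf area.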

Molecule | Classification and statistics of pesticide damage grade Grade 0 | Classification and statistics of pesticide damage grade Grade 1 | Classification and statistics of pesticide damage grade Grade 2 | Classification and statistics of pesticide damage grade Grade 3
B1 | 0 | 0 | 0 | 0
B2 | 1 | 14 | 1 | 0
B3 | 2 | 12 | 1 | 1
B4 | 0 | 0 | 0 | 16
B5 | 16 | 0 | 0 | 0
B6 | 0 | 1 | 15 | 0
B7 | 16 | 0 | 0 | 0

Same assay, conditions: HPPDs from different species; number of plants (of 16) in this grade; topramezone 100 g ai/ha (4x), 7 DAT

Molecule | Classification and statistics of pesticide damage grade Grade 0 | Classification and statistics of pesticide damage grade Grade 1 | Classification and statistics of pesticide damage grade Grade 2 | Classification and statistics of pesticide damage grade Grade 3
B1 | 0 | 0 | 0 | 0
B2 | 0 | 1 | 15 | 0
B3 | 0 | 4 | 8 | 4
B4 | 0 | 0 | 0 | 16
B5 | 16 | 0 | 0 | 0
B6 | 0 | 0 | 0 | 16
B7 | 16 | 0 | 0 | 0

Same assay, conditions: HPPDs from different species; score for pesticide damage 0-100; topramezone 25 g ai/ha (1x), 7 DAT

Molecule | Scores
B1 | 16
B2 | 33
B3 | 35
B4 | 100
B5 | 0
B6 | 65
B7 | 0

Same assay, conditions: HPPDs from different species; score for pesticide damage 0-100; topramezone 100 g ai/ha (4x), 7 DAT

Molecule | Scores
B1 | 16
B2 | 65
B3 | 67
B4 | 100
B5 | 0
B6 | 100
B7 | 0

Same assay, conditions: HPPDs from different species; topramezone 25 g ai/ha (1x), 7 DAT

Molecule | Resistance evaluation
B1 | non-resistant (non-resistant plants (scores 68-100))
B2 | moderately resistant (moderately resistant plants (scores 16-33))
B3 | poorly resistant (poorly resistant plants (scores 34-67))
B4 | non-resistant (non-resistant plants (scores 68-100))
B5 | highly resistant (highly resistant plants (scores 0-15))
B6 | poorly resistant (poorly resistant plants (scores 34-67))
B7 | highly resistant (highly resistant plants (scores 0-15))

Same assay, conditions: HPPDs from different species; topramezone 100 g ai/ha (4x), 7 DAT

Molecule | Resistance evaluation
B1 | non-resistant (non-resistant plants (scores 68-100))
B2 | poorly resistant (poorly resistant plants (scores 34-67))
B3 | poorly resistant (poorly resistant plants (scores 34-67))
B4 | non-resistant (non-resistant plants (scores 68-100))
B5 | highly resistant (highly resistant plants (scores 0-15))
B6 | non-resistant (non-resistant plants (scores 68-100))
B7 | highly resistant (highly resistant plants (scores 0-15))
